The results in this text go back to paper PMC5663480, “Structural inhibition of dynamin-mediated membrane fission by endophilin” (eLife, 2017).

This data set concerns the molecule itself. In words: cryo-EM structure; 2D class averages of endophilin-only coat on lipid tubules: 11 µM protein, DOPS liposomes (0.5 g/l), GTPase buffer, 30 min room temperature.

B1: Rat endophilinA1 (natural protein, UniProt O35179 1-352, looked up)
chain: MSVAGLKKQFHKATQKVSEKVGGAEGTKLDDDFKEMERKVDVTSRAVMEIMTKTIEYLQPNPASRAKLSMINTMSKIRGQEKGPGYPQAEALLAEAMLKFGRELGDDCNFGPALGEVGEAMRELSEVKDSLDMEVKQNFIDPLQNLHDKDLREIQHHLKKLEGRRLDFDYKKKRQGKIPDEELRQALEKFDESKEIAESSMFNLLEMDIEQVSQLSALVQAQLEYHKQAVQILQQVTVRLEERIRQASSQPRREYQPKPRMSLEFATGDGTQPNGGLSHTGTPKPAGVQMDQPCCRALYDFEPENEGELGFKEGDIITLTNQIDENWYEGMLHGQSGFFPINYVEILVALPH
notes: Rat endophilinA1, wild type and full-length; source: E. coli, pGEX-6P vector, purified (glutathione Sepharose, PreScission cleavage)
For the protein B1, the binding result is “binds”.
